The values below are quoted from earlier work in paper PMC3166722.

Broadly, the Kd is the equilibrium constant for the complex coming apart.

The target in data set [1] is GPC (trypsinized IOVs) (Homo sapiens) (UniProt P04921). The data set is described as follows: IOV binding, Scatchard analysis.
The target in data set [2] is CaM (Homo sapiens) (UniProt P0DP23). The experiment in a line: resonant mirror detection (IAsys).
Data set [3] has the same target.

Read-outs that look alike come from different tables or passages of the source.

Chain of GPC (trypsinized IOVs) (Homo sapiens) (P04921 whole entry): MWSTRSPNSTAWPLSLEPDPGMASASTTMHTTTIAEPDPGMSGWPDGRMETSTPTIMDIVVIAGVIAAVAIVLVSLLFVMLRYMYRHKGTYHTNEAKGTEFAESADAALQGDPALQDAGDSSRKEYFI
Chain of 4.1R135 (P11171 whole entry): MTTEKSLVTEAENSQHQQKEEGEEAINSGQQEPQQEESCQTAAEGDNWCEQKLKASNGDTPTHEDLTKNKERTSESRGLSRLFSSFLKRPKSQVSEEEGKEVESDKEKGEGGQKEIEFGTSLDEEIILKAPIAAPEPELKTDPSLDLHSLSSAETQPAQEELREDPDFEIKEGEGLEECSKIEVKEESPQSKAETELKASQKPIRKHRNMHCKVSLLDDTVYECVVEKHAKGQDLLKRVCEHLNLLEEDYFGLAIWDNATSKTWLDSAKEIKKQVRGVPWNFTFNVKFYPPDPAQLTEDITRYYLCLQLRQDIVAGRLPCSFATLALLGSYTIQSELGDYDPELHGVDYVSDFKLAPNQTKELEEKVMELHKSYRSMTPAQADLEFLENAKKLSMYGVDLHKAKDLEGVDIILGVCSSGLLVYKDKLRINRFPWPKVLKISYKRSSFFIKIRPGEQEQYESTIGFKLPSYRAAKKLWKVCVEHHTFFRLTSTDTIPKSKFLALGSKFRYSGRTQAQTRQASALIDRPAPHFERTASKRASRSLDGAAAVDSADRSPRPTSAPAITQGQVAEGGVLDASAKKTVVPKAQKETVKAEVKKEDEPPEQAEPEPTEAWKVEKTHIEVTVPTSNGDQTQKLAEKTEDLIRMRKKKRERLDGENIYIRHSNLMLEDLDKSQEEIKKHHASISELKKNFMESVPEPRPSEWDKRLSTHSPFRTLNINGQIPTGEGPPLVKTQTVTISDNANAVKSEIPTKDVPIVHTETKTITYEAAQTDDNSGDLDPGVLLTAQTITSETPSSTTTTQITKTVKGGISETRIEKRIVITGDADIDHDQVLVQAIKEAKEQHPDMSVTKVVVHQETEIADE
Chain of 4.1R80 (P11171 whole entry): as above

Consider 4.1R135 (from UniProt P11171), for which the Kd was 2000 nM in data set [1] and 51 nM in data set [2]. Turning to 4.1R80 (from UniProt P11171), the Kd in data set [1] is 76 nM. For the substance 4.1G (from UniProt O43491), the Kd in data set [3] is 10 nM.
